The record followed here is the RNAGym collection of RNA variant scans (doi:10.7554/elife.80360).

B1: Hammerhead Ribozyme (parent)
chain: ACCGGAUGUGCUUUCCGGUCUGAUGAGUCCGUGAGGACGAAACAG

Variants of B1 are the subject of the data set. Briefly: self-cleavage, relative activity (ratio to wild type); higher = more cleavage; co-transcriptional.
On to G10A A42G, for which the self-cleavage is 0.288.

Take U13C G45C: the self-cleavage stood at 0.743.

In the case of A23C A42U, the self-cleavage turned out to be 0.331.

C11G A41G: the self-cleavage came to 0.413.

Consider G22C U28A, for which the self-cleavage turned out to be 0.351.

On to U19C A44G, for which the self-cleavage was 0.751.

With C16A G39C, the self-cleavage stood at 0.337.

Turning to U9A G25C, the self-cleavage is 0.311.

U28C G36U: the self-cleavage came out at 0.591.

With U28C G36C, the self-cleavage was determined as 0.297.

Take G4U C15G: the self-cleavage came to 0.436.

As to G8U U32C, the self-cleavage was 0.877.

On to G5U C29A, for which the self-cleavage was determined as 0.402.

Take C15A C43U: the self-cleavage stood at 0.415.

Take G17U A37U: the self-cleavage came out at 0.586.

In the case of C20U G33C, the self-cleavage worked out at 0.682.

Turning to G25U G45U, the self-cleavage was 0.323.

Regarding G18U U21G, the self-cleavage stood at 0.426.

On to U19G G36U, for which the self-cleavage was determined as 0.301.

Consider G18A G22C, for which the self-cleavage was 0.417.

On to A6G G39U, for which the self-cleavage was found to be 0.248.

Consider U12G G25A, for which the self-cleavage worked out at 0.316.

As for G27U A44G, the self-cleavage stood at 0.69.

Take G8A G17U: the self-cleavage is 0.837.

In the case of G8A C15A, the self-cleavage came to 0.937.

Take G36C C43A: the self-cleavage came out at 0.35.

Turning to C20A G27A, the self-cleavage amounted to 0.333.

With G17U G18U, the self-cleavage came out at 0.442.

C2G U9G: the self-cleavage was determined as 0.32.

In the case of A34U G39U, the self-cleavage worked out at 0.356.

Take U7G G39U: the self-cleavage is 0.365.

Consider U7A A42G, for which the self-cleavage turned out to be 0.216.

As for C3A U13C, the self-cleavage was determined as 0.963.

Take U32A A34G: the self-cleavage worked out at 0.818.

As for G8C G18A, the self-cleavage worked out at 0.509.

A1G A6G: the self-cleavage was determined as 1.5.

Regarding U12A C29U, the self-cleavage came out at 0.881.

For U32G A37U, the self-cleavage came to 0.46.

For the variant A6U U13C, the self-cleavage is 1.02.

Consider U19C C29G, for which the self-cleavage was found to be 0.434.

With G35A C43A, the self-cleavage was determined as 0.322.

For G4C C16A, the self-cleavage worked out at 1.65.

G10U U24G: the self-cleavage worked out at 1.16.

As to C3A G31U, the self-cleavage stood at 1.05.

Take G4C G22C: the self-cleavage worked out at 0.241.

For the variant U24C C29U, the self-cleavage turned out to be 1.05.

On to C2A G8C, for which the self-cleavage turned out to be 0.559.

G17A U28C: the self-cleavage was determined as 0.331.

For the variant G8A G33U, the self-cleavage came to 1.13.

As for C30A A42G, the self-cleavage came out at 0.246.

Regarding A6C U13C, the self-cleavage was 0.598.

For the variant C2G C29G, the self-cleavage turned out to be 0.354.

Turning to A23U C30A, the self-cleavage worked out at 0.463.

As to A34C C38U, the self-cleavage came to 0.758.

Turning to G5C U14G, the self-cleavage was 0.929.

On to U19A G33C, for which the self-cleavage was found to be 0.291.

As for G18A U21G, the self-cleavage is 0.404.

Regarding U12A G17C, the self-cleavage came out at 0.423.

Turning to G18U A44G, the self-cleavage is 0.942.

Take C15G G27A: the self-cleavage stood at 0.464.

Turning to U12G U32G, the self-cleavage came out at 0.813.

Turning to G25U A44C, the self-cleavage worked out at 0.42.

Turning to U19C C38G, the self-cleavage was 0.407.

In the case of U9A G31A, the self-cleavage is 0.825.

For U7C A37C, the self-cleavage came out at 0.828.

On to U12A C20A, for which the self-cleavage was 0.313.

Regarding G10A G35A, the self-cleavage came out at 0.853.

For the variant C30A G31A, the self-cleavage is 1.12.

C16U C20U: the self-cleavage stood at 0.651.

Consider A1G A26C, for which the self-cleavage worked out at 0.571.

Turning to C2G C20G, the self-cleavage is 0.297.

As to U9G G18A, the self-cleavage was determined as 0.393.

G22A A41C: the self-cleavage turned out to be 0.383.

Take A1C U9G: the self-cleavage was 0.346.

Take C20U G25A: the self-cleavage is 0.756.

For the variant A26C U28C, the self-cleavage came to 0.524.

C15U A41G: the self-cleavage came to 0.355.

For the variant G5C A40C, the self-cleavage worked out at 0.325.

Take G10U U14C: the self-cleavage amounted to 0.952.

As for U12A G35A, the self-cleavage is 0.724.

Regarding U12A G35C, the self-cleavage was 0.653.

As for G10C G31U, the self-cleavage amounted to 1.19.

On to C3G C30A, for which the self-cleavage came to 0.353.

For C20G G36A, the self-cleavage is 0.31.

Take U24A G31U: the self-cleavage was 0.927.

Turning to A6G U13A, the self-cleavage was 0.842.

Consider U21G C30G, for which the self-cleavage worked out at 0.373.

U9C U13G: the self-cleavage is 0.946.

With U9C G22U, the self-cleavage was found to be 0.307.

Regarding C16A G17A, the self-cleavage was determined as 0.374.

In the case of G17C G33C, the self-cleavage was 0.458.

In the case of U12A G25U, the self-cleavage was 0.331.

G10C U19G: the self-cleavage was determined as 0.353.

On to G33C G39U, for which the self-cleavage came out at 0.364.

G35C A44C: the self-cleavage was determined as 0.42.

For C3G C15G, the self-cleavage stood at 0.314.

With A1G G18U, the self-cleavage is 0.894.

As for C15G G45U, the self-cleavage was found to be 0.421.

U13C A37C: the self-cleavage was determined as 1.07.

On to U12C U28A, for which the self-cleavage came out at 0.487.

In the case of G8C U9C, the self-cleavage was 1.05.

With U24A C30G, the self-cleavage turned out to be 1.04.

In the case of G35C A40U, the self-cleavage came to 0.296.

As for A1U A37C, the self-cleavage stood at 0.556.

In the case of G4A C11G, the self-cleavage came to 0.539.

On to U14C G35A, for which the self-cleavage worked out at 0.565.

U12G U19A: the self-cleavage was 0.299.

As to U12G U19C, the self-cleavage was determined as 0.524.

For G18U C43A, the self-cleavage stood at 0.286.

As for C16U A44C, the self-cleavage is 0.586.

Consider C11A G31U, for which the self-cleavage was found to be 1.08.

Consider C2A A34G, for which the self-cleavage was found to be 0.48.

For the variant U19A G45C, the self-cleavage is 0.405.

As for A6C G18A, the self-cleavage worked out at 0.311.

Turning to U13A A26G, the self-cleavage was 0.327.

For the variant C15A A26U, the self-cleavage was determined as 0.446.

C3G U24G: the self-cleavage turned out to be 0.44.

With U12G A23U, the self-cleavage was 0.317.

As to C16A A37U, the self-cleavage was determined as 0.616.

For the variant C16A A37G, the self-cleavage is 0.874.

On to G8C U14G, for which the self-cleavage is 1.11.

In the case of U28G A41U, the self-cleavage came out at 0.338.

For C2A G36U, the self-cleavage was determined as 0.341.

A6G A40C: the self-cleavage turned out to be 0.355.

Regarding C11G A37U, the self-cleavage came to 0.897.

Consider U21C A41C, for which the self-cleavage turned out to be 0.329.

For the variant C29A U32A, the self-cleavage was found to be 0.643.

G39C G45C: the self-cleavage worked out at 0.368.

As to U24G G45A, the self-cleavage worked out at 0.541.

As for C20U G22A, the self-cleavage worked out at 0.338.

In the case of G18C C30A, the self-cleavage is 0.451.

In the case of U19A U28G, the self-cleavage was 0.374.

Take C38U C43A: the self-cleavage turned out to be 0.414.

For G10C U32C, the self-cleavage is 1.3.

Consider U28C G45C, for which the self-cleavage worked out at 0.406.

U7C U28A: the self-cleavage came out at 0.504.

For the variant C3G G35U, the self-cleavage worked out at 0.32.

For G25A A37U, the self-cleavage is 0.272.

Take G17A G31U: the self-cleavage stood at 0.788.

Regarding U13C A44U, the self-cleavage is 0.923.

Take G4A G35C: the self-cleavage was determined as 0.391.

For A26U A37C, the self-cleavage stood at 0.509.

With C11G A44G, the self-cleavage is 1.8.

As for G4A C30U, the self-cleavage is 0.526.

As for U12C A40G, the self-cleavage amounted to 0.329.

Consider G22U G45U, for which the self-cleavage is 0.428.

In the case of U7G G27U, the self-cleavage was determined as 0.511.

Turning to U28C G39U, the self-cleavage came out at 0.291.

Take A37G C38G: the self-cleavage is 0.79.

For the variant G17A U21A, the self-cleavage was 0.351.

On to C16G C30A, for which the self-cleavage came to 0.712.

Take C3G A23U: the self-cleavage came out at 0.242.

Turning to G31C G36U, the self-cleavage is 0.562.

In the case of C3G G27U, the self-cleavage worked out at 0.265.

C3G G27C: the self-cleavage amounted to 0.284.

With A40G A41C, the self-cleavage was 0.341.

On to C15G G33A, for which the self-cleavage worked out at 0.9.

In the case of C2A G33A, the self-cleavage stood at 0.958.

On to G27A U32C, for which the self-cleavage came to 0.803.

Consider C15A G33A, for which the self-cleavage worked out at 0.921.

As to U28G G31A, the self-cleavage came to 0.85.

Take G22U A37G: the self-cleavage is 0.417.

With U9G G10A, the self-cleavage came out at 0.891.

Regarding U9G G10C, the self-cleavage is 0.987.

As to U7G U13A, the self-cleavage is 1.66.

Take U9C C43G: the self-cleavage amounted to 0.274.

As for C16U G27A, the self-cleavage stood at 0.858.
